The record followed here is PMC2646141.

B1: wild type APOBEC3G prey [human] / wild type APOBEC3G bait [human] (parent)
chain 1: MKPHFRNTVERMYRDTFSYNFYNRPILSRRNTVWLCYEVKTKGPSRPPLDAKIFRGQVYSELKYHPEMRFFHWFSKWRKLHRDQEYEVTWYISWSPCTKCTRDMATFLAEDPKVTLTIFVARLYYFWDPDYQEALRSLCQKRDGPRATMKIMNYDEFQHCWSKFVYSQRELFEPWNNLPKYYILLHIMLGEILRHSMDPPTFTFNFNNEPWVRGRHETYLCYEVERMHNDTWVLLNQRRGFLCNQAPHKHGFLEGRHAELCFLDVIPFWKLDLDQDYRVTCFTSWSPCFSCAQEMAKFISKNKHVSLCIFTARIYDDQGRCQEGLRTLAEAGAKISIMTYSEFKHCWDTFVDHQGCPFQPWDGLDEHSQDLSGRLRAILQNQEN
chain 2: B1 chain 1

Variants of B1 are the subject of this assay. The assay is described as follows: yeast two-hybrid (β-galactosidase activity). Conditions: with wild type APOBEC3G (A3G) bait [human]; parent: 0.5; read off a plot.
On to chain 1 W127A, for which the response turned out to be 0.038 OD540.
Turning to chain 1 W127Y, the response was found to be 0.031 OD540.
Take chain 1 Y124F: the response worked out at 0.05 OD540.
As for chain 1 Y124L, the response was 0.042 OD540.
Regarding chain 1 Y124A, the response was 0.062 OD540.
For the variant chain 1 Y315A, the response was 0.59 OD540.
With chain 1 Y315L the figure was 0.5 OD540; with chain 1 Y315F, 0.34 OD540.
